One block for each binder: values may come before it.
Experiments:
[1] = target: T1, mouse FcγRIV (mouse); assay: SPR (Biacore), antibody captured on Protein L, mouse FcγR as analyte, pH 7.4, 25 C
T1 construct: Bought soluble receptor; also called mFcgRIV; mFcgR IV
Protocol: Binding activity between the antibodies and mouse FcγRI, FcγRII, FcγRIII and FcγRIV (R&D Systems, Sin θ Biological) (hereinafter referred to as mouse FcγRs) was evaluated using the Biacore T100 or T200 (GE Healthcare). The antibodies being tested were captured by Protein L (ACTIGEN) that was immobilized in suitable amounts on the CM4 Sensor Chip (GE Healthcare) by amine coupling. Next, the diluted mouse FcγRs and a running buffer used as a blank were injected to allow interaction with the antibody captured on the sensor chip. A buffer consisting of 20 mmol/L ACES, 150 mmol/L NaCl and 0.05% (w/v) Tween 20 (pH 7.4) was used for the running buffer, and this buffer was also used to dilute the mouse FcγRs. 10 mmol/L glycine-HCl (pH 1.5) was used to regenerate the sensor chip. All measurements were carried out at 25° C.
Binding activity to mouse FcγRs can be represented by the relative binding activity to mouse FcγRs. Antibody was captured by Protein L, and the amount of change in a sensorgram before and after the antibody was captured was defined as X1. Next, mouse FcγRs were allowed to interact with the antibody, and the value obtained by subtracting binding activity of mouse FcγRs represented as the amount of change in a sensorgram before and after allowing the running buffer to interact with antibody captured by Protein L (ΔA2) from the value obtained by multiplying by 1500 the value obtained by dividing the binding activity of mouse FcγRs represented as the amount of change in a sensorgram before and after that interaction (ΔA1) by the captured amount (X) of each antibody, was divided by the captured amount of each antibody (X) followed by multiplying by 1500 to obtain the binding activity of the mouse FcγRs (Y) (Equation 1).

[2] = target: T2, FcγRIIa type H (human, UniProt P12318 36-217); assay: SPR (Biacore), captured antibody, FcγR as analyte, method of Example 14
T2 construct: also called FcγRIIaH; FcγRIIa(H)
T2 sequence: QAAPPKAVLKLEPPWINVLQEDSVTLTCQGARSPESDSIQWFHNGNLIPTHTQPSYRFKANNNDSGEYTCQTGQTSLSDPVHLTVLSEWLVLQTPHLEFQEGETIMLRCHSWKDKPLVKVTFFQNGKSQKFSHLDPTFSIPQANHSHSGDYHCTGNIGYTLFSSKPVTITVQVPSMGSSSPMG

[3] = target: T3, FcγRIIIa type V (human, UniProt P08637 17-208, limits assumed); assay: as above
T3 construct: also called FcγRIIIaV; FcγRIIIa(V)
T3 sequence (P08637 other isoform, or with tags, fused parts or gaps limits assumed): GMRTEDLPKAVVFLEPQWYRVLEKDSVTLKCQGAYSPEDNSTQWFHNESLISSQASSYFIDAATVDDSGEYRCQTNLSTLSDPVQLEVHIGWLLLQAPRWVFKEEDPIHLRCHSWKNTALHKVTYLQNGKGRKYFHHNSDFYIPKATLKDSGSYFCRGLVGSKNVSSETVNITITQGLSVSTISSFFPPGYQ

[4] = target: T4, FcγRIIb (human, UniProt P31994 43-217, limits assumed); assay: SPR (Biacore), antibody captured on chip, FcγR as analyte, method of Example 14
T4 construct: Soluble analyte in Biacore; also called FcgRIIb; FcγIIB
T4 sequence: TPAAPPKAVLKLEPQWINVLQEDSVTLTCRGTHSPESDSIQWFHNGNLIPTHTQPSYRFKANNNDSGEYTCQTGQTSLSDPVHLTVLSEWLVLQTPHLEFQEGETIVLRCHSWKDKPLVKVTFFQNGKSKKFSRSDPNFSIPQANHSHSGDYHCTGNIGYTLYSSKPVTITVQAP
Protocol: (§1) Next, interaction between these antibodies and FcγR was analyzed kinetically using the Biacore T100 (GE Healthcare). The interaction was measured at a temperature of 25° C. using HBS-EP+ (GE Healthcare) for the running buffer. The Series S Sensor Chip CM5 (GE Healthcare) was used after immobilizing Protein A by amine coupling. […] Antibody captured on the chip was washed by allowing 10 mM glycine-HCl (pH 1.5) to react following measurement. The chip regenerated in this manner was used repeatedly. The dissociation constant KD (mol/L) was calculated from the association rate constant ka (L/mol/s) and dissociation rate constant kd (1/s) as calculated by global-fitting the measurement results with a 1:1 Langmuir binding model using the Biacore

[5] = target: T5, FcγRIIIa type V (human, UniProt P08637 17-208, limits assumed); assay: as above
T5 construct: Soluble analyte in Biacore; also called FcγRIIIaV; FcγRIIIa(V)
T5 sequence (P08637 other isoform, or with tags, fused parts or gaps limits assumed): as the sequence (P08637 other isoform, or with tags, fused parts or gaps limits assumed) above
Protocol: as §1

[6] = target: T6, FcγRIIb (human, UniProt P31994 43-217, limits assumed); assay: ratio of SPR KD values of this variant (FcγRIIaH over FcγRIIb)
T6 construct: also called FcγIIB; FcgRIIb
T6 sequence: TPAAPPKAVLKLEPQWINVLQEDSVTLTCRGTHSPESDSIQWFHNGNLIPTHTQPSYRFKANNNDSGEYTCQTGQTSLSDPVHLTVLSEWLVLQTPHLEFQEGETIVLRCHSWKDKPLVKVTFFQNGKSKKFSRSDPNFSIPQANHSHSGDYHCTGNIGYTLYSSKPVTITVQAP
Description: (§2) Furthermore, KD(IIaR)/KD(IIb) and KD(IIaH)/KD(IIb) in the table respectively represent the value obtained by dividing the KD value of each variant for FcγRIIaR by the KD value of each variant for FcγRIIb, and the value obtained by dividing the KD value of each variant for FcγRIIaH by the KD value of each variant for FcγRIIb.

[7] = target: T6, FcγRIIb; assay: ratio of SPR KD values of this variant (FcγRIIaR over FcγRIIb)
Description: as §2

[8] = target: T7, human FcRn (human); assay: SPR (Biacore), pH 7.0, 25 C, antibody captured by Protein L, human FcRn as analyte
T7 construct: also called hFcRn; soluble human FcRn complexed with β2-microglobulin
Protocol: A kinetic analysis of binding between human FcRn and the aforementioned antibodies was carried out using the Biacore T100 or T200 (GE Healthcare). The antibodies being tested were captured on the CM4 Sensor Chip (GE Healthcare) on which a suitable amount of Protein L (ACTIGEN) was suitably immobilized by amine coupling. Next, diluted human FcRn and a running buffer used as a blank were injected to allow the human FcRn to interact with the antibody captured on the sensor chip. A buffer consisting of 50 mmol/L sodium phosphate, 150 mmol/L NaCl and 0.05% (w/v) Tween 20 (pH 7.0 or pH 7.4) was used for the running buffer, and each buffer was also used to dilute the human FcRn. 10 mmol/L glycine-HCl (pH 1.5) was used to regenerate the sensor chip. All measurements of binding were carried out at 25° C. The KD(M) of each antibody to human FcRn was calculated based on kinetics parameters, i.e., the association rate constant ka (1/Ms) and the dissociation rate constant kd (1/s) calculated from a sensorgram obtained by the measurement. The Biacore T100 or T200 Evaluation Software (GE Healthcare) was used to calculate each parameter.

T1 sequence (A0A0B4J1G0 21-203): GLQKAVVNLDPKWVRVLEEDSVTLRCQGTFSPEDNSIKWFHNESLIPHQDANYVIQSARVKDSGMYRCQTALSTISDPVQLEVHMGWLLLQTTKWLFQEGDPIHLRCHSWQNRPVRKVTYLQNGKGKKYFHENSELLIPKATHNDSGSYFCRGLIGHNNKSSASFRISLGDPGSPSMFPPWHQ

B2: IL6R-BP182/IL6R-L (antibody, human IgG1)
heavy: QVQLQESGPGLVKPSETLSLTCAVSGHSISHDHAWSWVRQPPGEGLEWIGFISYSGITNYNPSLQGRVTISRDNSKNTLYLQMNSLRAEDTAVYYCARSLARTTAMDYWGEGTLVTVSSASTKGPSVFPLAPSSKSTSGGTAALGCLVKDYFPEPVTVSWNSGALTSGVHTFPAVLQSSGLYSLSSVVTVPSSSLGTQTYICNVNHKPSNTKVDKKVEPKSCDKTHTCPPCPAPDLLGGDSVFLFPPKPKDTLMISRTPEVTCVVVDVSHEDGEVKFNWYVDGVEVHNAKTKPREEQDNSTYRVVSVLTVLHQDWLNGKEYKCKVSNKALPKPIEKTISKAKGQPREPQVYTLPPSRDELTKNQVSLTCLVKGFYPSDIAVEWESNGQPENNYKTTPPVLDSDGSFFLYSKLTVDKSRWQQGNVFSCSVMHEALHNHYTQESLSLSP
light: DIQMTQSPSSLSASVGDRVTITCRASQDISSYLNWYQQKPGKAPKLLIYYTSRLHSGVPSRFSGSGSGTDFTFTISSLQPEDIATYYCQQGNTLPYTFGQGTKVEIK
notes: EU numbering
Kd [2]: 2.6 µM | Kd [3]: 68 µM

B4: IL6R-BP207/IL6R-L (antibody, human IgG1)
heavy: QVQLQESGPGLVKPSETLSLTCAVSGHSISHDHAWSWVRQPPGEGLEWIGFISYSGITNYNPSLQGRVTISRDNSKNTLYLQMNSLRAEDTAVYYCARSLARTTAMDYWGEGTLVTVSSASTKGPSVFPLAPSSKSTSGGTAALGCLVKDYFPEPVTVSWNSGALTSGVHTFPAVLQSSGLYSLSSVVTVPSSSLGTQTYICNVNHKPSNTKVDKKVEPKSCDKTHTCPPCPAPDLLGGDSVFLFPPKPKDTLMISRTPEVTCVVVDVSHEDPEVKFNWYVDGVEVHNAKTKPREEQYNSTYRVVSVLTVLHQDWLNGKEYKCKVSNKALPRPIEKTISKAKGQPREPQVYTLPPSRDELTKNQVSLTCLVKGFYPSDIAVEWESNGQPENNYKTTPPVLDSDGSFFLYSKLTVDKSRWQQGNVFSCSVMHEALHNHYTQESLSLSP
light: DIQMTQSPSSLSASVGDRVTITCRASQDISSYLNWYQQKPGKAPKLLIYYTSRLHSGVPSRFSGSGSGTDFTFTISSLQPEDIATYYCQQGNTLPYTFGQGTKVEIK
notes: Anti-human IL-6 receptor IgG1 Fc variant
Kd [4]: 0.64 µM | Kd [5]: 65 µM

B7: IL6R-BP152/IL6R-L (antibody, human IgG1)
heavy: QVQLQESGPGLVKPSETLSLTCAVSGHSISHDHAWSWVRQPPGEGLEWIGFISYSGITNYNPSLQGRVTISRDNSKNTLYLQMNSLRAEDTAVYYCARSLARTTAMDYWGEGTLVTVSSASTKGPSVFPLAPSSKSTSGGTAALGCLVKDYFPEPVTVSWNSGALTSGVHTFPAVLQSSGLYSLSSVVTVPSSSLGTQTYICNVNHKPSNTKVDKKVEPKSCDKTHTCPPCPAPDYLGDDSVFLFPPKPKDTLMISRTPEVTCVVVDVSHEDPEVKFNWYVDGVEVHNAKTKPREEQDNSTYRVVSVLTVLHQDWLNGKEYKCKVSNAALPRPIEKTISKAKGQPREPQVYTLPPSRDELTKNQVSLTCLVKGFYPSDIAVEWESNGQPENNYKTTPPVLDSDGSFFLYSKLTVDKSRWQQGNVFSCSVMHEALHNHYTQESLSLSP
light: DIQMTQSPSSLSASVGDRVTITCRASQDISSYLNWYQQKPGKAPKLLIYYTSRLHSGVPSRFSGSGSGTDFTFTISSLQPEDIATYYCQQGNTLPYTFGQGTKVEIK
notes: EU numbering
KD (IIaH)/KD (IIb) [6]: 136 | KD (IIaR)/KD (IIb) [7]: 19.5 | Kd [3]: 40 µM

B8: IL6R-BP147/IL6R-L (antibody, human IgG1)
heavy: QVQLQESGPGLVKPSETLSLTCAVSGHSISHDHAWSWVRQPPGEGLEWIGFISYSGITNYNPSLQGRVTISRDNSKNTLYLQMNSLRAEDTAVYYCARSLARTTAMDYWGEGTLVTVSSASTKGPSVFPLAPSSKSTSGGTAALGCLVKDYFPEPVTVSWNSGALTSGVHTFPAVLQSSGLYSLSSVVTVPSSSLGTQTYICNVNHKPSNTKVDKKVEPKSCDKTHTCPPCPAPEYLGDDSVFLFPPKPKDTLMISRTPEVTCVVVDVSHEDPEVKFNWYVDGVEVHNAKTKPREEQYNSTYRVVSVLTVLHQDWLNGKEYKCKVSNAALPKPIEKTISKAKGQPREPQVYTLPPSRDELTKNQVSLTCLVKGFYPSDIAVEWESNGQPENNYKTTPPVLDSDGSFFLYSKLTVDKSRWQQGNVFSCSVMHEALHNHYTQESLSLSP
light: DIQMTQSPSSLSASVGDRVTITCRASQDISSYLNWYQQKPGKAPKLLIYYTSRLHSGVPSRFSGSGSGTDFTFTISSLQPEDIATYYCQQGNTLPYTFGQGTKVEIK
notes: EU numbering
Kd [3]: 35 µM

More lines, now with the values ahead:

BINDING AMOUNT (RU) [1]: 108 RU
B1: VH3/L(WT)-IgG1-F140 (antibody)
heavy: QVQLQESGPGLVKPSETLSLTCAVSGHSISHDHAWSWVRQPPGEGLEWIGFISYSGITNYNPSLQGRVTISRDNSKNTLYLQMNSLRAEDTAVYYCARSLARTTAMDYWGEGTLVTVSSASTKGPSVFPLAPSSKSTSGGTAALGCLVKDYFPEPVTVSWNSGALTSGVHTFPAVLQSSGLYSLSSVVTVPSSSLGTQTYICNVNHKPSNTKVDKKVEPKSCDKTHTCPPCPAPELLGGPKVFLFPPKPKDTLYISRTPEVTCVVVDVSHEDPEVKFNWYVDGVEVHNAKTKPREEQYNSTYRVVSVLTPLHQDWLNGKEYKCKVSNKALPAPIEKTISKAKGQPREPQVYTLPPSRDELTKNQVSLTCLVKGFYPSDIAVEWESNGQPENNYKTTPPVLDSDGSFFLYSKLTVDKSRWQQGNVFSCSVMHEALHYHYTQKSLSLSP
light: not shown
notes: copies: 2 + 2

Kd [4]: 39 µM
B3: IL6R-BP210/IL6R-L (antibody, human IgG1)
heavy: QVQLQESGPGLVKPSETLSLTCAVSGHSISHDHAWSWVRQPPGEGLEWIGFISYSGITNYNPSLQGRVTISRDNSKNTLYLQMNSLRAEDTAVYYCARSLARTTAMDYWGEGTLVTVSSASTKGPSVFPLAPSSKSTSGGTAALGCLVKDYFPEPVTVSWNSGALTSGVHTFPAVLQSSGLYSLSSVVTVPSSSLGTQTYICNVNHKPSNTKVDKKVEPKSCDKTHTCPPCPAPELLGDDSVFLFPPKPKDTLMISRTPEVTCVVVDVSDEDGEVKFNWYVDGVEVHNAKTKPREEQYNSTYRVVSVLTVLHQDWLNGKEYKCKVSNKALPRPIEKTISKAKGQPREPQVYTLPPSRDELTKNQVSLTCLVKGFYPSDIAVEWESNGQPENNYKTTPPVLDSDGSFFLYSKLTVDKSRWQQGNVFSCSVMHEALHNHYTQESLSLSP
light: DIQMTQSPSSLSASVGDRVTITCRASQDISSYLNWYQQKPGKAPKLLIYYTSRLHSGVPSRFSGSGSGTDFTFTISSLQPEDIATYYCQQGNTLPYTFGQGTKVEIK
notes: as for B4

KD (IIaH)/KD (IIb) [6]: 50 | KD (IIaR)/KD (IIb) [7]: 9.3 | Kd [2]: 1.6 µM | Kd [3]: 30 µM
B5: IL6R-BP146/IL6R-L (antibody, human IgG1)
heavy: QVQLQESGPGLVKPSETLSLTCAVSGHSISHDHAWSWVRQPPGEGLEWIGFISYSGITNYNPSLQGRVTISRDNSKNTLYLQMNSLRAEDTAVYYCARSLARTTAMDYWGEGTLVTVSSASTKGPSVFPLAPSSKSTSGGTAALGCLVKDYFPEPVTVSWNSGALTSGVHTFPAVLQSSGLYSLSSVVTVPSSSLGTQTYICNVNHKPSNTKVDKKVEPKSCDKTHTCPPCPAPEYLGDDSVFLFPPKPKDTLMISRTPEVTCVVVDVSHEDPEVKFNWYVDGVEVHNAKTKPREEQYNSTYRVVSVLTVLHQDWLNGKEYKCKVSNAALPAPIEKTISKAKGQPREPQVYTLPPSRDELTKNQVSLTCLVKGFYPSDIAVEWESNGQPENNYKTTPPVLDSDGSFFLYSKLTVDKSRWQQGNVFSCSVMHEALHNHYTQESLSLSP
light: DIQMTQSPSSLSASVGDRVTITCRASQDISSYLNWYQQKPGKAPKLLIYYTSRLHSGVPSRFSGSGSGTDFTFTISSLQPEDIATYYCQQGNTLPYTFGQGTKVEIK
notes: positions are EU numbering, not positions on the entry

BINDING AMOUNT (RU) [1]: 243 RU
B6: antibody with VH3-IgG1-F157 heavy chain and L(WT)-CK light chain (antibody)
heavy: QVQLQESGPGLVKPSETLSLTCAVSGHSISHDHAWSWVRQPPGEGLEWIGFISYSGITNYNPSLQGRVTISRDNSKNTLYLQMNSLRAEDTAVYYCARSLARTTAMDYWGEGTLVTVSSASTKGPSVFPLAPSSKSTSGGTAALGCLVKDYFPEPVTVSWNSGALTSGVHTFPAVLQSSGLYSLSSVVTVPSSSLGTQTYICNVNHKPSNTKVDKKVEPKSCDKTHTCPPCPAPELLGGPSVFLFPPKPKDTLMISRTAEVTCVVVDVSHEDPEVKFNWYVDGVEVHNAKTKPREEQYNSTYRVVSVLTPLHQDWLNGKEYKCKVSNKALPAPIEKTISKAKGQPREPQVYTLPPSRDELTKNQVSLTCLVKGFYPSDIAVEWESNGQPENNYKTTPPVLDSDGSFFLYSKLTVDKSRWQQGNVFSCSVLHEALHYHYTQKSLSLSP
light: not shown
notes: copies: 2 + 2

Kd [8]: 0.171 µM
B9: F1272 (antibody, name in EU numbering)
heavy: QVQLQESGPGLVKPSETLSLTCAVSGHSISHDHAWSWVRQPPGEGLEWIGFISYSGITNYNPSLQGRVTISRDNSKNTLYLQMNSLRAEDTAVYYCARSLARTTAMDYWGEGTLVTVSSASTKGPSVFPLAPSSKSTSGGTAALGCLVKDYFPEPVTVSWNSGALTSGVHTFPAVLQSSGLYSLSSVVTVPSSSLGTQTYICNVNHKPSNTKVDKKVEPKSCDKTHTCPPCPAPELRGGPKVFLFPPKPKDTLYIARTPEVTCVVVDVSHEDPEVKFNWYVDGVEVHNAKTKPREEQYNSTYRVVSVLTVLHQDWLNGKEYKCKVSNKALPAPIEKTISKAKGQPREPQVYTLPPSRDELTKNQVSLTCLVKGFYPSDIAVEWESNGQPENNYKTTPPVLDSDGSFFLYSKLTVDKSRWQQGNVFSCSVMHEALDYHVTKKDLSLSP
light: not shown
notes: copies: 2 + 2

Reference: US20140105889A1 (published 2014)
